Source: US20230203172A1 (SHANGHAI MABGEEK BIOTECH, published 2023)
Changes are numbered by the printed parent chain.

B1: murine anti-hIL-4R alpha monoclonal antibody 59 (antibody, V domains shown)
VH: EVQLVESGGGLVKPGGSLKLSCAASGFTFSDYGIHWVRQAPDKGLEWVAYIRSDSSIIHYADTVKGRFTISRDNAKNTLFLQMTSLRSEDTAMYYCTRGRDRGYFDYWGQGTTLTVSS
VL: QIVLTQSPALMSASPGEKVTMTCSASSSVSYMYWYQQKPRSSPKPWIYLTSNLASGVPARFSGSGSGTSYSLTISSMEAEDAATYYCQQWTSIPFTFGSGTKLEIK
notes: Mouse hybridoma antibody purified on ProteinG
B2: murine anti-hIL-4R alpha monoclonal antibody 29 (antibody, V domains shown)
VH: EVQLVESGGGLVKPGGSLKLSCAASGFTFSDYGMHWVRQAPEKGLEWVAYINSGSSKIYHADTVKGRFTISRDNAKNTLFLQMTSLRSEDTAMYYCARFPTVVAARYPMDYWGQGTSVTVSS
VL: DIQMTQTPSSLSASLGDRVTISCRASQDISNYLNWYQQKPDGTVKLLIYFTSRLHSGVPSRFSGGGSGTDYSLTISNLEQEDIATYFCQQGNTLPYTFGGGTKLEIK
notes: as for B1
B3: murine anti-hIL-4R alpha monoclonal antibody 136 (antibody, V domains shown)
VH: B2 VH with N52S, S56T, K57T, H60Y, A75G, F99I, P100S, A105K, P108A
VL: B2 VL with P8A, F50Y, G65S, G91I, T93A, Y96L, G100A, I106L
notes: as for B1
B4: murine anti-hIL-4R alpha monoclonal antibody 120 (antibody, V domains shown)
VH: B2 VH with N52S, S56T, K57T, H60Y, A75G, F99I, P100S, A105K, P108A
VL: B2 VL with P8A, F50Y, G65S, G91I, T93A, Y96L, G100A, I106L
notes: as for B1
B5: murine anti-hIL-4R alpha monoclonal antibody 131 (antibody, V domains shown)
VH: B2 VH with N52S, K57T, H60Y, F99I, P100S, A105K, P108A
VL: B2 VL with P8A, F50Y, G65S, Q90E, G91V, T93M, Y96L, G100A, I106L
notes: as for B1
B6: murine anti-hIL-4R alpha monoclonal antibody 81 (antibody, V domains shown)
VH: DVQLQQSGPELLKPGASVKIPCQASGYTFTDYNMDWVKQSHGKNLEWIGNINPNNGGTFYNQKFKGKATLTVDKSSSTAYMELRSLTSEDTAVYYCGRGGLRRRGFMDYWGQGTSVTVSS
VL: QIVLSQSPAILSASPGEKVTMTCRASSSVIYIHWYQQKPGSSPKPWIYAASNLASGVPARFSGSGSGTSYSLTISRVEAEDAATYYCQQWSVNPPTFGGGTKLEIK
notes: as for B1
B7: murine anti-hIL-4R alpha monoclonal antibody 57 (antibody, V domains shown)
VH: B6 VH with D1E, L12V, Q23K, N44S, N50D, G57N, T58I, F59L, Y60F, M81V
VL: B6 VL with I30S, I32M, V92S
notes: as for B1
B8: murine anti-hIL-4R alpha monoclonal antibody 75 (antibody, V domains shown)
VH: B6 VH with D1E, L12V, Q23K, N44S, N50D, G57N, T58I, F59L, Y60F, M81V
VL: B6 VL with I30S, I32M, V92S
notes: as for B1
B9: murine anti-hIL-4R alpha monoclonal antibody 54 (antibody, V domains shown)
VH: B6 VH with D1E, L12V, Q23K, N44S, N50D, G57N, T58I, F59L, Y60F, M81V
VL: B6 VL with I30S, I32M, V92S
notes: as for B1
B10: murine anti-hIL-4R alpha monoclonal antibody 83 (antibody, V domains shown)
VH: EVQLQQSGPELVKPGASVKIPCKASGYTFTDYNMDWVKQSRGKSLEWIGTINPNNGDTMYNQKFKDKATLTVDKSSTTAYMELRSLTSEDTAVYYCGRGGLRRRGFMDYWGRGTSVTVSS
VL: B6 VL with A50I, S71F, A79V
notes: as for B1
B11: murine anti-hIL-4R alpha monoclonal antibody 236 (antibody, V domains shown)
VH: EVQLQQSGPELVKPGASVKIPCKASGYTFTDYNVDWVKQSHGQSLDWIGTINPNNGGILSNQKFKGKATLTVDTSSSTAYMELRSLTSEDTAVYYCGRGGLRRRGFMDYWGQGTSVTVSS
VL: B6 VL with Q36Y, P39A, A54P, V92S
notes: as for B1
B12: murine anti-hIL-4R alpha monoclonal antibody 228 (antibody, V domains shown)
VH: B6 VH
VL: B6 VL
notes: as for B1
B13: murine anti-hIL-4R alpha monoclonal antibody 55 (antibody, V domains shown)
VH: B6 VH
VL: B6 VL with A59V
notes: as for B1
B14: murine anti-hIL-4R alpha monoclonal antibody 64 (antibody, V domains shown)
VH: B6 VH with D1E, L12V, P21S, Q23K, N44S, N50T, I51T, F59L, G97A, M107V
VL: B6 VL with I30N, I32L, A50T, V92S
notes: as for B1
B15: murine anti-hIL-4R alpha monoclonal antibody 100 (antibody, V domains shown)
VH: B6 VH with M107L
VL: B6 VL with A50V, A59V
notes: as for B1
B16: murine anti-hIL-4R alpha monoclonal antibody 88 (antibody, V domains shown)
VH: B6 VH with N50T, K63N, Y80C, E89D
VL: B6 VL
notes: as for B1
B17: murine anti-hIL-4R alpha monoclonal antibody 84 (antibody, V domains shown)
VH: B6 VH with P9R, P14R
VL: B6 VL
notes: as for B1
B18: humanized anti-hIL-4R alpha monoclonal antibody 29-Hu (antibody, human IgG4 S228P, kappa, V domains shown)
VH: B2 VH with K13Q, K19R, E42G, T78S, F80Y, T84N, S88A, M93V, S117L
VL: DIQMTQSPSSLSASVGDRVTITCRASQDISNYLNWYQQKPGKAPKLLIYFTSRLHSGVPSRFSGSGSGTDYTLTISSLQPEDFATYYCQQGNTLPYTFGQGTKLEIKR
notes: Humanized, human IgG4 constant region; expressed in HEK293, purified on ProteinA
B19: humanized anti-hIL-4R alpha monoclonal antibody 228-Hu (antibody, human IgG4 S228P, kappa, V domains shown)
VH: QVQLVQSGAEVKKPGASVKVSCKASGYTFTDYNMDWVRQAPGQNLEWIGNINPNNGGTFYNQKFKGRATLTVDKSASTAYMELSSLRSEDTAVYYCARGGLRRRGFMDYWGQGTLVTVSS
VL: EIVLTQSPATLSLSPGERATLSCRASSSVIYIHWYQQKPGQSPRPWIYAASNLASGVPARFSGSGSGTDYTLTISRLEPEDFAVYYCQQWSVNPPTFGQGTKLEIKR
notes: as for B18
B20: Dupilumab (antibody, V domains shown)
VH: EVQLVESGGGLEQPGGSLRLSCAGSGFTFRDYAMTWVRQAPGKGLEWVSSISGSGGNTYYADSVKGRFTISRDNSKNTLYLQMNSLRAEDTAVYYCAKDRLSITIRPRYYGLDVWGQGTTVTVSS
VL: DIVMTQSPLSLPVTPGEPASISCRSSQSLLYSIGYNYLDWYLQKSGQSPQLLIYLGSNRASGVPDRFSGSGSGTDFTLKISRVEAEDVGFYYCMQALQTPYTFGQGTKLEIKR

Biological target: T1, human IL-4R alpha on cells (TF-1 cells; human peripheral blood mononuclear cells) (human, UniProt P24394 26-825)
Assay: cell-based or functional assay

Point of comparison: B15, “IC50 (ng/ml), inhibition of IL-4-induced TF-1 proliferation” value 53.7 ng/mL. Against it:
- B1 — within 1.5-fold, 43.7 ng/mL
- B2 — within 1.5-fold, 65.3 ng/mL
- B3 — within 1.5-fold, 49.6 ng/mL
- B4 — within 1.5-fold, 59.7 ng/mL
- B5 — within 1.5-fold, 47.1 ng/mL
- B6 — 2.2-fold lower, 24.6 ng/mL
- B7 — 2.3-fold lower, 23.6 ng/mL
- B8 — 1.9-fold lower, 29 ng/mL
- B9 — within 1.5-fold, 57 ng/mL
- B10 — within 1.5-fold, 36.6 ng/mL
- B11 — 2.4-fold lower, 22.4 ng/mL
- B12 — 1.6-fold lower, 34.2 ng/mL
- B13 — 2.8-fold lower, 19 ng/mL
- B14 — within 1.5-fold, 43.7 ng/mL
- B16 — within 1.5-fold, 67.2 ng/mL
- B17 — 1.7-fold lower, 31.3 ng/mL

Biological target: T1, human IL-4R alpha on cells (TF-1 cells; …)
Assay: cell-based or functional assay
Remark: another data set of the same source

With B18 the “IC50 (ng/ml), inhibition of IL-4-induced TF-1 cell proliferation” value was 156 ng/mL.

Biological target: T2, hIL-4R alpha-ECD-Fc (human, UniProt P24394 26-232)
T2 construct: range 26-232; hFc at the C-terminus of the ECD; also called hIL4R alpha-ECD-hFc; hIL-4R alpha-Fc antigen
Assay: ELISA, plate coated with 1 ug/ml hIL-4R alpha-ECD-Fc
Description: The titer was tested by ELISA: an ELISA plate was coated with the hIL-4R alpha ECD-Fc antigen at a concentration of 1 μg/ml, 100 μl per well, and coated overnight at 4° C. The plates were washed twice with PBST (PBS containing 0.5% Tween-20) and then pat-dried. Each well was blocked with 200 μl of coating solution containing 1% BSA, blocked at room temperature for 4 h, pat-dried, and stored in a refrigerator at −20° C. for later use. During testing, 100 μl of mouse serum at different concentrations was added to each well of the ELISA plate, with two replicate wells, for incubation at room temperature for 1.5 h. The wells were washed with PBST for 3 times and then pat-dried. Then 100 μl of rabbit anti-mouse IgG labeled with HRP diluted with PBST by 1:10000 (purchased from Sigma) was added and the plates were incubated at room temperature for 1 h. The wells were washed with PBST for 3 times and then pat-dried. Then 100 μl of chromogenic solution was added to each well (an ELISA chromogenic solution A was mixed with a chromogenic solution B at a volume ratio of 1:1 before use) for a chromogenic reaction, and then 100 μl of 2M H2SO4 stopping solution was added to each well to terminate the reaction. The OD value of each well was immediately measured at 450 nm with a microplate reader (Molecular Device).
Optimized murine anti-hIL-4R alpha monoclonal antibodies were purified by a ProteinG affinity chromatography column and quantified by BCA. The EC50 of anti-hIL-4R alpha monoclonal antibodies binding to hIL-4R alpha was tested by ELISA. The testing method is as described in Example 3. An ELISA plate was coated with 1 μg/ml of hIL-4R alpha-ECD-Fc antigen, and then murine anti-hIL-4R alpha monoclonal antibodies at different concentrations were added for testing.

Point of comparison: B11, EC50 0.0115 µg/mL. Against it:
- B1 — within 1.5-fold, 0.0117 µg/mL
- B2 — 1.5-fold lower, 0.0076 µg/mL
- B3 — within 1.5-fold, 0.0113 µg/mL
- B4 — within 1.5-fold, 0.01 µg/mL
- B5 — within 1.5-fold, 0.0138 µg/mL
- B6 — within 1.5-fold, 0.0096 µg/mL
- B7 — within 1.5-fold, 0.0079 µg/mL
- B8 — within 1.5-fold, 0.0129 µg/mL
- B9 — within 1.5-fold, 0.0099 µg/mL
- B10 — within 1.5-fold, 0.0123 µg/mL
- B12 — within 1.5-fold, 0.0131 µg/mL
- B13 — within 1.5-fold, 0.0089 µg/mL
- B14 — within 1.5-fold, 0.0106 µg/mL
- B15 — within 1.5-fold, 0.012 µg/mL
- B16 — within 1.5-fold, 0.0091 µg/mL
- B17 — within 1.5-fold, 0.0122 µg/mL

Biological target: T3, hIL-4R alpha-ECD-Flag (human, UniProt P24394 26-232)
T3 construct: range 26-232; Analyte of the Biacore experiment
Assay: SPR, Biacore T200, antibody captured on Protein-A chip, hIL-4R alpha-ECD-Flag as analyte
Description: The affinity of six purified humanized antibodies was detected by Biacore T200 (GE healthcare), with the reference antibody Dupilumab as a control. The specific experimental method was as follows: a Protein-A CMS sensor chip (GE healthcare) was used, with FC1 (Flow cell 1) as a reference channel, and FC2 (Flow cell 2) as a sample channel. Humanized antibodies or control antibody were captured in the FC2 channel, and then hIL-4R alpha-ECD-Flag at different concentrations was injected. Cycling conditions were as follows: an analyte was injected into all channels of FCs at 50 μl/min for 4 min, with a dissociation time of 20 min, and 6M guanidine hydrochloride (Sinopharm Chemical Reagent Co., Ltd.) was injected at a rate of 10 μl/min for 30 s for surface regeneration. Then, signal differences and affinity for interaction between captured antibodies and non-captured antibodies were calculated by Biacore T200 Evaluation Software Ver 1.0.

Point of comparison: B18, Kd 0.526 nM. Against it:
- B19 — 1.7-fold higher, 0.912 nM
- B20 — within 1.5-fold, 0.403 nM

Point of comparison: B18, koff 0.00021 s⁻¹. Against it:
- B19 — 3.1-fold higher, 0.000658 s⁻¹
- B20 — within 1.5-fold, 0.00018 s⁻¹

Point of comparison: B19, kon 721000 M⁻¹ s⁻¹. Against it:
- B18 — 1.8-fold lower, 398000 M⁻¹ s⁻¹
- B20 — 1.6-fold lower, 446000 M⁻¹ s⁻¹
